The target of experiment [1] is T1, mouse TNFα (mouse, UniProt P06804 80-235).
T1 sequence (looked up): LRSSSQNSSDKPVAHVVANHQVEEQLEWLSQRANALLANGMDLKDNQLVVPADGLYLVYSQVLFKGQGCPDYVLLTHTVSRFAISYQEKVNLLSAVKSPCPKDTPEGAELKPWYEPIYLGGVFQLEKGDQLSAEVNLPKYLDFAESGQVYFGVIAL
Kind of experiment: cell-based or functional assay.

Experiment [2] concerns the target T1, mouse TNFα. Kind of experiment: BLI (ForteBio Octet Red), target adsorbed on the probe. A general note: Biolayer interferometry detects binding as a change in optical thickness at a sensor tip.
In experiment [3] the target is IL-1β. Described as above.
Chain of IL-1β (P01584 117-269): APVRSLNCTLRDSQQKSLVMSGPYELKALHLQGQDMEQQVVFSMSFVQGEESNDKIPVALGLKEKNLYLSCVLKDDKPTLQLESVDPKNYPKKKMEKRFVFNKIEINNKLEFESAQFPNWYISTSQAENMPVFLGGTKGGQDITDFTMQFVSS

We go through three molecules from patent publication US20210046181A1 (VALITOR, published 2021).

B1: (anti-(mouse)TNFα VHH antibody-EMCH)273-HyA (2000 kDa) (VHH)
VHH: QVQLQDSGGGLVQAGGSLRLSCAASGGTFSSIIMAWFRQAPGKEREFVGAVSWSGGTTVYADSVLGRFEISRDSARKSVYLQMNSLKPEDTAVYYCAARPYQKYNWASASYNVWGQGTQVTVSS
modifications: engineered cysteine thiol linked through EMCH (maleimide) to hyaluronic acid (HyA, 2000 kDa)
notes: Multivalent peptide-polymer conjugate: about 273 VHH per HyA chain
With B1, the “IC50 (nM), Bioactivity Data; assay not given, the filing describes IC50 from the L929 fibroblast cell survival assay with TNFα” value in experiment [1] was 120 nM. Also, the Kd in experiment [2] amounted to 0.17 nM.

B2: (anti-IL-1β scFv antibody-EMCH)15-HyA (2000 kDa) (scFv)
scFv: SNAEIVMTQSPSTLSASVGDRVIITCQASQSIDNWLSWYQQKPGKAPKLLIYRASTLASGVPSRFSGSGSGAEFTLTISSLQPDDFATYYCQNTGGGVSIAFGQGTKLTVLGGGGGSGGGGSGGGGSGGGGSEVQLVESGGGLVQPGGSLRLSCTASGFSLSSAAMAWVRQAPGKGLEWVGIIYDSASTYYASWAKGRFTISRDTSKNTVYLQMNSLRAEDTAVYYCARERAIFSGDFVLWGQGTLVTVSSSPSTPPTPSPSTPPGGC
modifications: engineered cysteine thiol linked through EMCH (maleimide) to hyaluronic acid (HyA, 2000 kDa)
B2 yielded a Kd in experiment [3] of 0.84 nM.

B3: (anti-IL-1β scFv antibody-EMCH)-CMC (700 kDa) (scFv)
scFv: SNAEIVMTQSPSTLSASVGDRVIITCQASQSIDNWLSWYQQKPGKAPKLLIYRASTLASGVPSRFSGSGSGAEFTLTISSLQPDDFATYYCQNTGGGVSIAFGQGTKLTVLGGGGGSGGGGSGGGGSGGGGSEVQLVESGGGLVQPGGSLRLSCTASGFSLSSAAMAWVRQAPGKGLEWVGIIYDSASTYYASWAKGRFTISRDTSKNTVYLQMNSLRAEDTAVYYCARERAIFSGDFVLWGQGTLVTVSSSPSTPPTPSPSTPPGGC
modifications: engineered cysteine thiol linked through EMCH (maleimide) to carboxymethyl cellulose (CMC, 700 kDa)
B3 displayed an equilibrium dissociation constant (Kd) in experiment [3] of 0.02 nM.

One may read the Kd as the equilibrium constant for the complex coming apart.
